Paper PMC2693874 (2009)
Like-named read-outs stand apart in the source and are kept apart here.

T1: factor Va (Homo sapiens, UniProt P12259)
T1 chain 1: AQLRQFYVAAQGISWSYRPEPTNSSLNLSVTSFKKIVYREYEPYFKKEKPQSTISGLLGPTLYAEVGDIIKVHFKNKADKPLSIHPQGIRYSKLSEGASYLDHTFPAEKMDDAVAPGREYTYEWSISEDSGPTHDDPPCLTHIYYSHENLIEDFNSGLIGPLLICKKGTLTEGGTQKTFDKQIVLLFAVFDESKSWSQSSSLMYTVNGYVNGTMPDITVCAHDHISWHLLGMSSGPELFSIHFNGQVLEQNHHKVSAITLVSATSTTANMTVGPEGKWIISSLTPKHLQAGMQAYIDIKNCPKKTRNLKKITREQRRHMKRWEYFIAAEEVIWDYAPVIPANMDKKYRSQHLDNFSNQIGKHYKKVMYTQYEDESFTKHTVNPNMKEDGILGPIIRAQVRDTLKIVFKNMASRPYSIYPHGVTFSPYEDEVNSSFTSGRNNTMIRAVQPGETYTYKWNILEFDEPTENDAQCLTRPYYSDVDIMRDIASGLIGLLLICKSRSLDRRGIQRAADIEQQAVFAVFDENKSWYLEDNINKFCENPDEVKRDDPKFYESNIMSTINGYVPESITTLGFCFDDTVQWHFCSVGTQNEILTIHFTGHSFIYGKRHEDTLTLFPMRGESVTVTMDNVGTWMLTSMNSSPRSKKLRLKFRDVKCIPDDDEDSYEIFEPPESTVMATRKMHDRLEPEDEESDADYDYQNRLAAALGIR
T1 chain 2: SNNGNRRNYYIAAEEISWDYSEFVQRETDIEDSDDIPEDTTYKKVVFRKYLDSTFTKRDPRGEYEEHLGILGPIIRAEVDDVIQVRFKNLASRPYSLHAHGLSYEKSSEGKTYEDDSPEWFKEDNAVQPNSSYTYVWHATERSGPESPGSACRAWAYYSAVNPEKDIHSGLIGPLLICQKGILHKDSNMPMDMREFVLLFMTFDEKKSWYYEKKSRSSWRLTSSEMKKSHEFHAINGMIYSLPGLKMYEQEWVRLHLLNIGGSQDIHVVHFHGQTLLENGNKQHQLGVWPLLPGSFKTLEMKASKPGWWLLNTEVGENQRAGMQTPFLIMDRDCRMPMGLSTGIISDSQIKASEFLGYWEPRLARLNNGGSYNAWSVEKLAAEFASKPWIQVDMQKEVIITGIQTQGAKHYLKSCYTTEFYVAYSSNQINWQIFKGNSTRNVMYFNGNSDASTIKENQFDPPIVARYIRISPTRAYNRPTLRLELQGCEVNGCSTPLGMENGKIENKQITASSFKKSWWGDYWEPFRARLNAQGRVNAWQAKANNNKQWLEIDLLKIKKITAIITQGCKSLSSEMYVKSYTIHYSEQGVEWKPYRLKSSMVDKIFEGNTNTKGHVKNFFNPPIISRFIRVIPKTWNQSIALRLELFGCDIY

B1: factor Xa (protein)
chain: IVGGQECKDGECPWQALLINEENEGFCGGTILSEFYILTAAHCLYQAKRFKVRVGDRNTEQEEGGEAVHEVEVVIKHNRFTKETYDFDIAVLRLKTPITFRMNVAPACLPERDWAESTLMTQKTGIVSGFGRTHEKGRQSTRLKMLEVPYVDRNSCKLSSSFIITQNMFCAGYDTKQEDACQGDSGGPHVTRFKDTYFVTGIVSWGEGCARKGKYGIYTKVTAFLKWIDRSMKTRGLPKAKSHAPEVITSSPLK
modifications: PCPS vesicles

Legend:
[1] = molecular target: OG488-EGR-labeled fXa-des-Gla; experiment: fluorescence polarisation
[2] = molecular target: OG488-EGR-labeled fXa-R165A; experiment: fluorescence polarisation
[3] = molecular target: OG488-EGR-labeled wild-type factor Xa; experiment: fluorescence polarisation
OG488-EGR-labeled E2-fXa = experiment: fluorescence polarisation
[4] = molecular target: OG488-EGR-labeled fXa-R165A; experiment: fluorescence polarisation; remark: listed apart in the source
factor Va = molecular target: T1, factor Va; experiment: prothrombinase assay

| Molecule | Kd [1] [nM] | Kd [2] [nM] | Kd [3] [nM] | Kd (OG488-EGR-labeled E2-fXa) [nM] | Kd [4] [nM] | Kd (factor Va) [nM] |
| --- | --- | --- | --- | --- | --- | --- |
| human plasma factor Va (from UniProt P12259 29-737; P12259 1574-2224) (natural protein) | 58 | 10.3 | 1.5 | 62 | 10.5 |  |
| B1 |  |  |  |  |  | 0.5 |
